Assay results from publication PMC6606445 (Nature structural & molecular biology, 2018).

How the values were obtained:
RecE-αN-tetramer = RecE-αN-tetramer (UniProt Q15431); test: SEC-MALS
[1] = molecular target: truncated SYCP1 αN-end (101-175) (human) (UniProt Q15431); test: crystal structure
[2] = molecular target: SYCP1 αN-end (101-206) (human) (UniProt Q15431); test: crystal structure
crystal structure = molecular target: the molecule itself; test: crystal structure
SEC-MALS [3] = molecular target: the molecule itself; test: SEC-MALS
SEC-MALS [4] = molecular target: the molecule itself; test: SEC-MALS; remark: listed apart in the source

## RecE-αN-tetramer (from UniProt Q15431 206-362)
RecE-αN-tetramer
  stoichiometry N: 4

## truncated SYCP1 αN-end (101-175) (from UniProt Q15431 101-175) (domain or fragment)
[1]
  stoichiometry N: 4

## SYCP1 αN-end (101-206) (from UniProt Q15431 101-206) (domain or fragment)
[2]
  stoichiometry N: 4

B1: SYCP1 αC-end (676-770) (domain or fragment)
chain: ENLLEEVEKAKVIADEAVKLQKEIDKRCQHKIAEMVALMEKHKHQYDKIIEERDSELGLYKSKEQEQSSLRASLEIELSNLKAELLSVKKQLEIE
Crystal structure
  stoichiometry N: 4

B2: SYCP1 αC-end extended (676-783) L679A I688A (domain or fragment)
chain: ENLAEEVEKAKVAADEAVKLQKEIDKRCQHKIAEMVALMEKHKHQYDKIIEERDSELGLYKSKEQEQSSLRASLEIELSNLKAELLSVKKQLEIEREEKEKLKREAKE
SEC-MALS [3]
  stoichiometry N: 2

B3: SYCP1 αN-tetramer (206-362) (domain or fragment)
chain: ETRQVYMDLNNNIEKMITAFEELRVQAENSRLEMHFKLKEDYEKIQHLEQEYKKEINDKEKQVSLLLIQITEKENKMKDLTFLLEESRDKVNQLEEKTKLQSENLKQSIEKQHHLTKELEDIKVSLQRSVSTQKALEEDLQIATKTICQLTEEKETQ
SEC-MALS [4]
  stoichiometry N: 4

B4: SYCP1 αN (101-362) (domain or fragment)
chain: GLSRVYSKLYKEAEKIKKWKVSTEAELRQKESKLQENRKIIEAQRKAIQELQFGNEKVSLKLEEGIQENKDLIKENNATRHLCNLLKETCARSAEKTKKYEYEREETRQVYMDLNNNIEKMITAFEELRVQAENSRLEMHFKLKEDYEKIQHLEQEYKKEINDKEKQVSLLLIQITEKENKMKDLTFLLEESRDKVNQLEEKTKLQSENLKQSIEKQHHLTKELEDIKVSLQRSVSTQKALEEDLQIATKTICQLTEEKETQ
SEC-MALS [4]
  binding result: binds

B5: GST-αC-dimer (domain or fragment)
chain: EKETQMEESNKARAAHSFVVTEFETTVCSLEELLRTEQQRLEKNEDQLKILTMELQKKSSELEEMTKLTNNKEVELEELKKVLGEKETLLYENKQFEKIAEELKGTEQELIGLLQAREKEVHDLEIQLTAITTSEQYYSKEVKDLKTELENEKLKNTELTSHCNKLSLENKELTQETSDMTLELKNQQEDINNNKKQEERMLKQIENLQETETQLRNELEYVREELKQKRDEVKCKLDKSEENCNNLRKQVENKNKYIEELQQENKALKKKGTAESKQLNVYEIKVNKLELELESAKQKFGEITDTYQKEIEDKKISEENLLEEVEKAKVIADEAVKLQKEIDKRCQHKIAEMVALMEKHKHQYDKIIEERDSELGLYKSKEQEQSSLRASLEIELSNLKAELLSVKKQLEIEREEKEKLKREAKE
SEC-MALS [4]
  stoichiometry N: 2

B6: SYCP1 αC-dimer (358-783) (domain or fragment)
chain: B5 chain
SEC-MALS [4]
  stoichiometry N: 2

B7: SYCP1 αCore-ΔNtip (112-783) (domain or fragment)
chain: EAEKIKKWKVSTEAELRQKESKLQENRKIIEAQRKAIQELQFGNEKVSLKLEEGIQENKDLIKENNATRHLCNLLKETCARSAEKTKKYEYEREETRQVYMDLNNNIEKMITAFEELRVQAENSRLEMHFKLKEDYEKIQHLEQEYKKEINDKEKQVSLLLIQITEKENKMKDLTFLLEESRDKVNQLEEKTKLQSENLKQSIEKQHHLTKELEDIKVSLQRSVSTQKALEEDLQIATKTICQLTEEKETQMEESNKARAAHSFVVTEFETTVCSLEELLRTEQQRLEKNEDQLKILTMELQKKSSELEEMTKLTNNKEVELEELKKVLGEKETLLYENKQFEKIAEELKGTEQELIGLLQAREKEVHDLEIQLTAITTSEQYYSKEVKDLKTELENEKLKNTELTSHCNKLSLENKELTQETSDMTLELKNQQEDINNNKKQEERMLKQIENLQETETQLRNELEYVREELKQKRDEVKCKLDKSEENCNNLRKQVENKNKYIEELQQENKALKKKGTAESKQLNVYEIKVNKLELELESAKQKFGEITDTYQKEIEDKKISEENLLEEVEKAKVIADEAVKLQKEIDKRCQHKIAEMVALMEKHKHQYDKIIEERDSELGLYKSKEQEQSSLRASLEIELSNLKAELLSVKKQLEIEREEKEKLKREAKE
SEC-MALS [4]
  stoichiometry N: 4

B8: SYCP1 αCore (101-783) (domain or fragment)
chain: GLSRVYSKLYKEAEKIKKWKVSTEAELRQKESKLQENRKIIEAQRKAIQELQFGNEKVSLKLEEGIQENKDLIKENNATRHLCNLLKETCARSAEKTKKYEYEREETRQVYMDLNNNIEKMITAFEELRVQAENSRLEMHFKLKEDYEKIQHLEQEYKKEINDKEKQVSLLLIQITEKENKMKDLTFLLEESRDKVNQLEEKTKLQSENLKQSIEKQHHLTKELEDIKVSLQRSVSTQKALEEDLQIATKTICQLTEEKETQMEESNKARAAHSFVVTEFETTVCSLEELLRTEQQRLEKNEDQLKILTMELQKKSSELEEMTKLTNNKEVELEELKKVLGEKETLLYENKQFEKIAEELKGTEQELIGLLQAREKEVHDLEIQLTAITTSEQYYSKEVKDLKTELENEKLKNTELTSHCNKLSLENKELTQETSDMTLELKNQQEDINNNKKQEERMLKQIENLQETETQLRNELEYVREELKQKRDEVKCKLDKSEENCNNLRKQVENKNKYIEELQQENKALKKKGTAESKQLNVYEIKVNKLELELESAKQKFGEITDTYQKEIEDKKISEENLLEEVEKAKVIADEAVKLQKEIDKRCQHKIAEMVALMEKHKHQYDKIIEERDSELGLYKSKEQEQSSLRASLEIELSNLKAELLSVKKQLEIEREEKEKLKREAKE
SEC-MALS [4]
  binding result: binds
